The values below come from patent US20170145113A1 (Genentech, published 2017).

Sequences and labels used below:
B1: h15H6.v2 variant HC1 (HC-T30K) Fab (Fab, V domains shown)
VH: EVQLVQSGAEVKKPGASVKVSCKASGYTFKDSEMHWVRQAPGQGLEWIGGVDPETDGAAYNQKFKGRATITRDTSTSTAYLELSSLRSEDTAVYYCTRGYDYDYALDYWGQGTLVTVSS
VL: DIQMTQSPSSLSASVGDRVTITCRASSSVNFIHWYQQKPGKAPKPLISATSNLASGVPSRFSGSGSGTDFTLTISSLQPEDFATYYCQQWSSNPWTFGQGTKVEIK
notes: Fab-Flag tag fusion from 293T cells
B2: h15H6.v2 variant LC9 (LC-S93I) Fab (Fab, V domains shown)
VH: EVQLVQSGAEVKKPGASVKVSCKASGYTFTDSEMHWVRQAPGQGLEWIGGVDPETDGAAYNQKFKGRATITRDTSTSTAYLELSSLRSEDTAVYYCTRGYDYDYALDYWGQGTLVTVSS
VL: DIQMTQSPSSLSASVGDRVTITCRASSSVNFIHWYQQKPGKAPKPLISATSNLASGVPSRFSGSGSGTDFTLTISSLQPEDFATYYCQQWSINPWTFGQGTKVEIK
notes: as for B1
B3: h15H6.v2 variant LC6 (LC-Q89H) Fab (Fab, V domains shown)
VH: EVQLVQSGAEVKKPGASVKVSCKASGYTFTDSEMHWVRQAPGQGLEWIGGVDPETDGAAYNQKFKGRATITRDTSTSTAYLELSSLRSEDTAVYYCTRGYDYDYALDYWGQGTLVTVSS
VL: DIQMTQSPSSLSASVGDRVTITCRASSSVNFIHWYQQKPGKAPKPLISATSNLASGVPSRFSGSGSGTDFTLTISSLQPEDFATYYCHQWSSNPWTFGQGTKVEIK
notes: as for B1
B4: h15H6.v2 variant LC5 (LC-N53E) Fab (Fab, V domains shown)
VH: EVQLVQSGAEVKKPGASVKVSCKASGYTFTDSEMHWVRQAPGQGLEWIGGVDPETDGAAYNQKFKGRATITRDTSTSTAYLELSSLRSEDTAVYYCTRGYDYDYALDYWGQGTLVTVSS
VL: DIQMTQSPSSLSASVGDRVTITCRASSSVNFIHWYQQKPGKAPKPLISATSELASGVPSRFSGSGSGTDFTLTISSLQPEDFATYYCQQWSSNPWTFGQGTKVEIK
notes: as for B1
B5: h15H6.v2 variant HC9 (HC-A100aP) Fab (Fab, V domains shown)
VH: EVQLVQSGAEVKKPGASVKVSCKASGYTFTDSEMHWVRQAPGQGLEWIGGVDPETDGAAYNQKFKGRATITRDTSTSTAYLELSSLRSEDTAVYYCTRGYDYDYPLDYWGQGTLVTVSS
VL: DIQMTQSPSSLSASVGDRVTITCRASSSVNFIHWYQQKPGKAPKPLISATSNLASGVPSRFSGSGSGTDFTLTISSLQPEDFATYYCQQWSSNPWTFGQGTKVEIK
notes: as for B1
B6: h15H6.v2 variant HC7 (HC-A58F) Fab (Fab, V domains shown)
VH: EVQLVQSGAEVKKPGASVKVSCKASGYTFTDSEMHWVRQAPGQGLEWIGGVDPETDGAFYNQKFKGRATITRDTSTSTAYLELSSLRSEDTAVYYCTRGYDYDYALDYWGQGTLVTVSS
VL: DIQMTQSPSSLSASVGDRVTITCRASSSVNFIHWYQQKPGKAPKPLISATSNLASGVPSRFSGSGSGTDFTLTISSLQPEDFATYYCQQWSSNPWTFGQGTKVEIK
notes: as for B1
B7: h15H6.v2 variant HC6 (HC-E53A) Fab (Fab, V domains shown)
VH: EVQLVQSGAEVKKPGASVKVSCKASGYTFTDSEMHWVRQAPGQGLEWIGGVDPATDGAAYNQKFKGRATITRDTSTSTAYLELSSLRSEDTAVYYCTRGYDYDYALDYWGQGTLVTVSS
VL: DIQMTQSPSSLSASVGDRVTITCRASSSVNFIHWYQQKPGKAPKPLISATSNLASGVPSRFSGSGSGTDFTLTISSLQPEDFATYYCQQWSSNPWTFGQGTKVEIK
notes: as for B1
B8: h15H6.v2 variant LC2 (LC-N31H) Fab (Fab, V domains shown)
VH: EVQLVQSGAEVKKPGASVKVSCKASGYTFTDSEMHWVRQAPGQGLEWIGGVDPETDGAAYNQKFKGRATITRDTSTSTAYLELSSLRSEDTAVYYCTRGYDYDYALDYWGQGTLVTVSS
VL: DIQMTQSPSSLSASVGDRVTITCRASSSVHFIHWYQQKPGKAPKPLISATSNLASGVPSRFSGSGSGTDFTLTISSLQPEDFATYYCQQWSSNPWTFGQGTKVEIK
notes: as for B1
B9: h15H6.v2 variant LC4 (LC-N53H) Fab (Fab, V domains shown)
VH: EVQLVQSGAEVKKPGASVKVSCKASGYTFTDSEMHWVRQAPGQGLEWIGGVDPETDGAAYNQKFKGRATITRDTSTSTAYLELSSLRSEDTAVYYCTRGYDYDYALDYWGQGTLVTVSS
VL: DIQMTQSPSSLSASVGDRVTITCRASSSVNFIHWYQQKPGKAPKPLISATSHLASGVPSRFSGSGSGTDFTLTISSLQPEDFATYYCQQWSSNPWTFGQGTKVEIK
notes: as for B1
B10: h15H6.v2 variant LC8 (LC-S92K) Fab (Fab, V domains shown)
VH: EVQLVQSGAEVKKPGASVKVSCKASGYTFTDSEMHWVRQAPGQGLEWIGGVDPETDGAAYNQKFKGRATITRDTSTSTAYLELSSLRSEDTAVYYCTRGYDYDYALDYWGQGTLVTVSS
VL: DIQMTQSPSSLSASVGDRVTITCRASSSVNFIHWYQQKPGKAPKPLISATSNLASGVPSRFSGSGSGTDFTLTISSLQPEDFATYYCQQWKSNPWTFGQGTKVEIK
notes: as for B1
B11: h15H6.v2 variant HC4 (HC-T28R) Fab (Fab, V domains shown)
VH: EVQLVQSGAEVKKPGASVKVSCKASGYRFTDSEMHWVRQAPGQGLEWIGGVDPETDGAAYNQKFKGRATITRDTSTSTAYLELSSLRSEDTAVYYCTRGYDYDYALDYWGQGTLVTVSS
VL: DIQMTQSPSSLSASVGDRVTITCRASSSVNFIHWYQQKPGKAPKPLISATSNLASGVPSRFSGSGSGTDFTLTISSLQPEDFATYYCQQWSSNPWTFGQGTKVEIK
notes: as for B1
B12: h15H6.v2 variant HC5 (HC-M34L) Fab (Fab, V domains shown)
VH: EVQLVQSGAEVKKPGASVKVSCKASGYTFTDSELHWVRQAPGQGLEWIGGVDPETDGAAYNQKFKGRATITRDTSTSTAYLELSSLRSEDTAVYYCTRGYDYDYALDYWGQGTLVTVSS
VL: DIQMTQSPSSLSASVGDRVTITCRASSSVNFIHWYQQKPGKAPKPLISATSNLASGVPSRFSGSGSGTDFTLTISSLQPEDFATYYCQQWSSNPWTFGQGTKVEIK
notes: as for B1
B13: h15H6.v2 variant HC3 (HC-T28K) Fab (Fab, V domains shown)
VH: EVQLVQSGAEVKKPGASVKVSCKASGYKFTDSEMHWVRQAPGQGLEWIGGVDPETDGAAYNQKFKGRATITRDTSTSTAYLELSSLRSEDTAVYYCTRGYDYDYALDYWGQGTLVTVSS
VL: DIQMTQSPSSLSASVGDRVTITCRASSSVNFIHWYQQKPGKAPKPLISATSNLASGVPSRFSGSGSGTDFTLTISSLQPEDFATYYCQQWSSNPWTFGQGTKVEIK
notes: as for B1
B14: h15H6.v2 variant HC2 (HC-T30R) Fab (Fab, V domains shown)
VH: EVQLVQSGAEVKKPGASVKVSCKASGYTFRDSEMHWVRQAPGQGLEWIGGVDPETDGAAYNQKFKGRATITRDTSTSTAYLELSSLRSEDTAVYYCTRGYDYDYALDYWGQGTLVTVSS
VL: DIQMTQSPSSLSASVGDRVTITCRASSSVNFIHWYQQKPGKAPKPLISATSNLASGVPSRFSGSGSGTDFTLTISSLQPEDFATYYCQQWSSNPWTFGQGTKVEIK
notes: as for B1
B15: h15H6.v2 variant HC8 (HC-Y100I) Fab (Fab, V domains shown)
VH: EVQLVQSGAEVKKPGASVKVSCKASGYTFTDSEMHWVRQAPGQGLEWIGGVDPETDGAAYNQKFKGRATITRDTSTSTAYLELSSLRSEDTAVYYCTRGYDYDIALDYWGQGTLVTVSS
VL: DIQMTQSPSSLSASVGDRVTITCRASSSVNFIHWYQQKPGKAPKPLISATSNLASGVPSRFSGSGSGTDFTLTISSLQPEDFATYYCQQWSSNPWTFGQGTKVEIK
notes: as for B1
B16: h15H6.v2 variant LC10 (LC-F32V, LC-S92K) Fab (Fab, V domains shown)
VH: EVQLVQSGAEVKKPGASVKVSCKASGYTFTDSEMHWVRQAPGQGLEWIGGVDPETDGAAYNQKFKGRATITRDTSTSTAYLELSSLRSEDTAVYYCTRGYDYDYALDYWGQGTLVTVSS
VL: DIQMTQSPSSLSASVGDRVTITCRASSSVNVIHWYQQKPGKAPKPLISATSNLASGVPSRFSGSGSGTDFTLTISSLQPEDFATYYCQQWKSNPWTFGQGTKVEIK
notes: as for B1
B17: h15H6.v2 variant LC1 (LC-S29R) Fab (Fab, V domains shown)
VH: EVQLVQSGAEVKKPGASVKVSCKASGYTFTDSEMHWVRQAPGQGLEWIGGVDPETDGAAYNQKFKGRATITRDTSTSTAYLELSSLRSEDTAVYYCTRGYDYDYALDYWGQGTLVTVSS
VL: DIQMTQSPSSLSASVGDRVTITCRASSRVNFIHWYQQKPGKAPKPLISATSNLASGVPSRFSGSGSGTDFTLTISSLQPEDFATYYCQQWSSNPWTFGQGTKVEIK
notes: as for B1

T1 sequence (Q92743 other isoform, or with tags, fused parts or gaps limits assumed): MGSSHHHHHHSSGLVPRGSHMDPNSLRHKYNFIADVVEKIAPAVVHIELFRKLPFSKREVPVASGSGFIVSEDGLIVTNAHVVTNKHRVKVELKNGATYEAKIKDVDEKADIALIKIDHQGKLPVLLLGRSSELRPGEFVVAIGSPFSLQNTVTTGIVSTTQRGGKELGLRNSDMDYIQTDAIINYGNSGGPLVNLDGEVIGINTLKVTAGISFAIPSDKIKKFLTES

This assay addresses T1, His-tagged human HtrA1 protease domain (human, UniProt Q92743 161-367).
T1 construct: His-tagged protease domain; also called huHtrA1-PD-His; huHtrA1-PD
The assay can be described thus: SPR (BIACORE T200), huHtrA1-PD-His captured by anti-His, Fab injected. As for the experimental part:
To determine the binding affinity of selected Fab variants for HtrA1, SPR measurement with a BIACORE™ T200 instrument was performed. Briefly, a series S sensor chip CM5 was activated with 1-EDC and NHS reagents according to the supplier's instructions, and anti-His antibody was coupled to achieve 200-300 response units (RU), then following by blocking un-reacted groups with 1 M ethanolamine. For kinetics measurements, approximately 5 nM of huHtrA1-PD-His was first injected at 10 μl/min flow rate to capture approximately 100 RU at 2 different flow cells (FC), except for FC1 (which served as a reference). Next, 5-fold serial dilutions of Fab in HBS-P buffer (0.01M HEPES pH 7.4, 0.15M NaCl, 0.005% surfactant P20) from low (0.8 nM) to high (50 nM) were injected (flow rate: 30 μl/min). The binding responses on HtrA1 were corrected by subtracting of RU from a blank flow cell. The sensorgram was recorded and subject to reference and buffer subtraction before evaluating by BIACORE® T200 Evaluation Software (version 2.0). Association rates (kₒₙ) and dissociation rates (koff) were calculated using a simple one-to-one Langmuir binding model. The equilibrium dissociation constant (KD) was calculated as the ratio of koff/kₒₙ.
(In general: Surface plasmon resonance follows binding to a sensor surface in real time, without labels.)
For the molecule B1, the Kd – broadly, the free concentration of one partner at which half of the binding sites on the other are occupied at equilibrium, for simple one-to-one binding – stood at 0.475 nM; the koff – broadly, the rate constant with which the complex falls apart – came out at 0.000165 s⁻¹; the kon (commonly a measure of how fast the partners come together) was determined as 347000 M⁻¹ s⁻¹.
For B2 the same measures were 2.15 nM, 0.000404 s⁻¹ and 188000 M⁻¹ s⁻¹.
For B3 the same measures were 0.642 nM, 0.000251 s⁻¹ and 390000 M⁻¹ s⁻¹.
For B4 the same measures were 0.481 nM, 0.000212 s⁻¹ and 441000 M⁻¹ s⁻¹.
As to B5, binding was put at a Kd of 0.618 nM, the off-rate (koff) stood at 0.00021 s⁻¹ and the kon amounted to 340000 M⁻¹ s⁻¹.
In the same order, the values of B6 are 0.611 nM, 0.000165 s⁻¹ and 271000 M⁻¹ s⁻¹.
In turn, B7 returned an equilibrium dissociation constant (Kd) of 2.58 nM, a dissociation rate constant (koff) of 0.00026 s⁻¹ and an association rate constant (kon) of 101000 M⁻¹ s⁻¹.
In the same order, the values of B8 are 0.836 nM, 0.00019 s⁻¹ and 228000 M⁻¹ s⁻¹.
In the same order, the values of B9 are 0.517 nM, 0.000213 s⁻¹ and 413000 M⁻¹ s⁻¹.
For B10 the same measures were 1.16 nM, 0.000397 s⁻¹ and 343000 M⁻¹ s⁻¹.
B11 registered a dissociation constant (Kd) of 0.643 nM, a koff of 0.000212 s⁻¹ and an association rate constant (kon) of 331000 M⁻¹ s⁻¹.
For B12 the same measures were 0.481 nM, 0.000246 s⁻¹ and 511000 M⁻¹ s⁻¹.
In the same order, the values of B13 are 0.374 nM, 0.000171 s⁻¹ and 456000 M⁻¹ s⁻¹.
Molecule B14 showed a Kd of 0.449 nM, a koff of 0.000164 s⁻¹ and an on-rate (kon) of 366000 M⁻¹ s⁻¹.
For B15 the same measures were 0.603 nM, 0.000237 s⁻¹ and 393000 M⁻¹ s⁻¹.
B16 registered a dissociation constant (Kd) of 8.42 nM, a koff of 0.00213 s⁻¹ and a kon of 253000 M⁻¹ s⁻¹.
In the same order, the values of B17 are 1.55 nM, 0.000229 s⁻¹ and 148000 M⁻¹ s⁻¹.
